assay: yeast display, Sf9 membrane polyspecificity reagent, FACS + sequencing; frameworks hold sequencing errors
Summary of the method: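 Galactose-induced (36–48 hours) yeast carrying a synthetic nanobody display library were exposed to 10% biotinylated, detergent-solubilized Sf9 membrane reagent at 4 °C for 1 hour. FACS followed streptavidin microbead enrichment, using low and high (top ~1%) gates for expression (anti-HA) and reagent binding (streptavidin). Colony PCR, MiSeq 2 × 250 sequencing and CDR-length filtering followed. Labels for polyreactivity reflect the gate of origin.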

Row | Sequence | polyreactivity (PSR sort gate)
1 | QVQLVESGGGLVQAGGSLRLSCDDSGTFFMGWNIPAPRKERELVAGISISDGSTYYADSVKGRFTISRDNAKNSVYLQMNSLKPEDTAVYYCAADSHYLYDYWGQGTQVTVSS | low polyreactivity
2 | QVQLVESGGGLVQAGGSLRLSCAASGRTFWGNAMGWYRQAPGKERELVAAIRRGGRTNYADSVKGRFTISRDNAKNTVYLQMNSLKPEDTAVYYCNALYAWSWPRGYDYWGQGTQVTVSS | high polyreactivity
3 | QVQLVESGGGLVQAGGSLRLSCAASGYTFAYYTMGWYRQAPGKERELVAAINRSGGSTNYADSVKGRFTISRDNAKNTVYLQMNSLKPEDTAVYYCAADYFFRRGPGAVFIGRYGYWGQGTQVTVSS | high polyreactivity
4 | QVQLVESGGGLVQAGGSLRLSCAASGSTFLEYARGWSRQAPGKERELVATITGGGGTNYADSVKGRFTISRDNAKNTVYLQMNSLKPEETAVYYCAADYGGAYEYGYWGQGTQVTVSS | low polyreactivity
5 | QVQLVESGGGLVQAGGSLRLSCAASGIIFSSNAMGWYRPAPGKERELVAAISNTGRTNYADSVKGRFTISRDNEKNTVYLQMNSLKPEDTAVYYCDARLSRRYYSYYYWGQGTQVTVSS | high polyreactivity
6 | QVQLVESGGGLVQAGGSLRLSCAASGFTFVDYAMGWYRQAPGKERELVATINWDSGSTYADSVKGRFTISRDNAKNTVYLQMNSLKPEDSADYYCAADGDEIEVSFYSWGQGTQVTVSS | low polyreactivity
7 | QVQLVESGVGIVQAGGSLRLSCAASGSTLVYYDMGWYRQAPGKERELVATITGTDSTYYADSVKGRFTISRDNAKNTVYLQMNSLKPEDTADCAADRAGSRPDYDYWGQGTQVTVSS | low polyreactivity
8 | QVQHVESGGGIVQAGGSLRLSCAASGIIFTSNAMGWYRQAPGKERELVAAINWSGARTYYADSVKGRFTISRDNAKNTVYLQMNSLKPEDTAVYYCNVVTRAATYPDYSYDYWGQGTQVTVSS | high polyreactivity
9 | QVQLVESGGGLVQAGGSLRLSCAASGPTFGVNAMGWYRQAPGKERELVAVISSTGSTNYSDSVKGRFTISRDNAKYTVYLQMNSLKPEDTAVYYCAVGPNSVGNRSYGFDYWGQGTQVTVSS | low polyreactivity
10 | QVQLVESGGGLVQAGGSLRLSCAASGSIFRQYAMGWYRQAPGKERELVAAITYSGGNTYYADSVKGRFTISRDNAKNTVYVQMNSLKPEDTAVYYCAADYGSRSWEYNYWGQGTQVTVSS | low polyreactivity
11 | QVQLVESGGGLVQAGGSLRLSCAASGRIFIVYVMVWYRQAPGKESELVAAITGRGGSTYYADSVKGRFTISHDNAKNTVYLQMNSLKPEDTAVYYCDDYDGGGYDSWGQGNQVTVSS | low polyreactivity
12 | QVQLQESGRRPRAAGGSPRMSCAASGNIIWVAVMCRYRQAPVKERELVASIGFGCTTYYADSVKCRFTISRDNAKNTVYLQMISLIPEDTAVYYCAAPHYDWGELDFWGQGTQVPVSS | low polyreactivity
13 | QVQLVESGGGLVQAGGSLRLSCAASGITFWQNTMGWYRQAPGKERELVAAISWTGGRTYYADSVKGRFTISRDNAKNTVYLQMNSLKPEDTAVYYCNTGHEEDEDDYWGQGTQVTVSS | low polyreactivity
14 | QVQVVESGGGLVQAGGSLRLSCAASGFIFRTYTMGWYRQAPGKERELVAAISYRGSSTYYADSVKGRFTISRDNAKNTVYFLMNSLKPEDTADYYCAAQLYGHRGYYWGQGTQVTVSS | high polyreactivity
15 | QVQLVESGGGLVQAGGSLRLSCAASGITFVHYAMGWSRQAPGKERELVAAITVGDGGTYYADSVKGRFTISRDNAKNTVYLQMNSLKPEDTAVYYCAAGFYSYSWYVKLAYGYWGQGIQVTVSS | low polyreactivity
16 | QVQLVESGGGLVQAGGSLRISCAASGRTFPRYAMGWYRQAPGKERELVAGISWSGGRTYYADSVKGRFTISRDNAKNTVYLQMNSLKPEDTAVYYCAVVSKNLSYRTTFYYWGQGTQVTVSS | high polyreactivity
17 | QVQHVEKGGALVQAGGSLRLSCAASGFTVDWYAMGWYIQAPGKERELVAAITTSGGTKYYADSVKGRFTISRDNAKNTVYLLMNCLNPEDTAVYYCAAEGTWSRNYDYWGQGTQVTVSS | low polyreactivity
18 | QVQLVESGGGLVQAGGSLRLSCAASGSIFRWYAMGWYRQAPGKERELVAAISTSGGNTYYADSVKGRFTISRDIAKITVYLQMKSLKPEDTAVYYCNALWYRSLSYRYDYWGQGTQVTVSS | high polyreactivity
19 | QVQLVESGVGLVKAGGSLRLSCATSGLILYRYVMGWYRQAAGKERQLVAAISSSGGRTYYADSVKGRFTISRDNAKNTVYLQMNSLKPEDTAVYYCAKRRSDARRGYDYLGQGTQVTVSS | high polyreactivity
20 | QVQLVESGGGLFQARGSLRLSCAASGSTFGFYARGWYRQATGKERELVAASSRGGSTNYADSVKGRFTISRDNAKNTVYLQLNSLKPEDTAGYYCAKAYHATSDYWGQGTQVTVSS | low polyreactivity
21 | QVQLVESGGGLVQAGGSLRLSCAASGRIFITNTMGWYRQAPGKERELVAAISRTGGSTYYADSVKGRFTISRDNAKNTVYLQMNSLKPEDTAVYYCNADWYGQLWWGVDYWGQGTQVTVSS | high polyreactivity
22 | QVQLVESGGVLVQAGGSLRLSCAASGITFPGYAMGWYRKAPGKERELVAAISAIGGRTYYADSVKGRFTISRYNAKNTVYLQMNSLKPEDTAVYYCNVLPYGGKKPTLFDYWGQGTQVTVSS | high polyreactivity
23 | QDQLVESGGGLVQAGGSLRLSCAASGSIIPFYAMGWYRQAPGKERELVAAITYSGGSTFYADSVKGRFTISRDNAKNTVYLQMNSLKPEDTAVYYCNAVWRFGSSKYYYWGQGTQVTVSS | high polyreactivity
24 | QVQLVESGGGLVQAGGSLRLSCAASGSTFQRNAMGWYRQAPGKERELVAVITRRGASTYYADSVKGRFTISRDNAKNTVYLQMKSLKPEDTAVYYCNKVPYGRDHHLLFDYWGQGTQVTVSS | high polyreactivity
25 | QVQLVESGGGLVQAGGTLRLSCAASGGTFATYAMGWCRQGPGKERELVAAITQSGGTTYYADSVKRRFTISRDNANNTVYLQMNSLKPEDTAVYYCNAEASQAVYYAYEYWGQGTQVTVSS | low polyreactivity
26 | QVQLVESVGGLVQAGGSLRLSCAASGFTFYKYAMGWYRQAPGKEREFVAAIRTRSDSTYYADSVKGRFTISRDNAKNTVYLQMNSLKPEDTAVYYCAAQGYVEVGYSRYYYWGQGTQVTVSS | high polyreactivity
27 | QVQLVESGGGLGQAGGSLRLSCAASGSIFHPYAMGWYRQAPGKERELVASITSSGGSTYYADSVKGRFTISRDTAKNTVYLQMNSMKPEDTAVYYCNAQFLVYFYWYSTTAYIMYYWGQGTQVTVSS | low polyreactivity
28 | QVQLVESGGGLVQAGGSLRLSCAASGGTFSYYAMGWYRQAPGKERELVAAITYSGDRTYYADSVKGRFTISRDNAKNTVYLQMNSLKPEDTAVYYCNAVRGSWYGYYYWGQGTQVTVSS | high polyreactivity
29 | LVQHVESGGGIVQAGGSLRLICAASGFPYNYYAMGWYRQAPGTEREFVAAISSGGGSTYYAYSVKGRFTISRDNAKNTVYLQMNSLKPEDTSGYYCAADRYSHYGYWGQATQVTVSS | low polyreactivity
30 | QVQLVESGGGLVQAGGSLRLSCAASGYTFSKNTMGWYRQAPGKEREFVAAINWSGGSTYYADSVKGRFTISRDNAKNTVYLQMNSLKPEDTAVYYCAARRGGRRGYDYWGQGTQVTVSS | high polyreactivity

Reference: the nanobody polyreactivity screen of Harvey et al. (2022)
